biological target: PhoP (Mycobacterium tuberculosis, UniProt P71814 1-247); assay: ITC

Binder | Kd | binding result
espA -215 (dsDNA) DNA 1: CGCATTGTCGCAGCGCAGTTGCAGGAGGGCAA DNA 2: TTGCCCTCCTGCAACTGCGCTGCGACAATGCG | 1590 ± 50 nM | 
Rv2633c (dsDNA) DNA 1: TGATTCACAGCTACCTCACATTAATGGG DNA 2: CCCATTAATGTGAGGTAGCTGTGAATCA | 37 ± 3.7 nM | 
Rv0964c (dsDNA) DNA 1: GCGCGCACGGCACACGCACCGCATCGGC DNA 2: GCCGATGCGGTGCGTGTGCCGTGCGCGC | 4350 ± 189 nM | 
PPE50 (dsDNA) DNA 1: CTTTTCACAGCAAAGTCCCAGAAATGGC DNA 2: GCCATTTCTGGGACTTTGCTGTGAAAAG | 45.7 ± 1.7 nM | 
fadD21 (dsDNA) DNA 1: CCTGTTTCAGCACATGCACAGCATTGCA DNA 2: TGCAATGCTGTGCATGTGCTGAAACAGG | 50.3 ± 4.3 nM | 
cyp123 (dsDNA) DNA 1: AGATCCACCGCCGCATCACATCGGCGAT DNA 2: ATCGCCGATGTGATGCGGCGGTGGATCT |  | no binding
papA4 (dsDNA) DNA 1: AGTATCACTGCCCGATCACCGGTCGCCC DNA 2: GGGCGACCGGTGATCGGGCAGTGATACT |  | no binding
hsp (dsDNA) DNA 1: CCGGACACAGCTAACTCACAACGAAGCA DNA 2: TGCTTCGTTGTGAGTTAGCTGTGTCCGG | 51.5 ± 4.3 nM | 
icl -350 (dsDNA) DNA 1: GGTTGGTCGACCGCGCTGTTACAACGCTCAC DNA 2: GTGAGCGTTGTAACAGCGCGGTCGACCAACC |  | no binding
icl +20 (dsDNA) DNA 1: ACCCCGAAGAGCGCGGAGCAGATCCAGCAGG DNA 2: CCTGCTGGATCTGCTCCGCGCTCTTCGGGGT |  | no binding
icl -400 (dsDNA) DNA 1: TCATCTCCCACGTTCACCCGGCTGGTTCG DNA 2: CGAACCAGCCGGGTGAACGTGGGAGATGA |  | no binding
icl -343 (dsDNA) DNA 1: GACCGCGCTGTTACAACGCTCACATATGTGG DNA 2: CCACATATGTGAGCGTTGTAACAGCGCGGTC |  | no binding
icl -301 (dsDNA) DNA 1: CCCAAGGCAGTCGCCTCGCTGTTCAATCTGT DNA 2: ACAGATTGAACAGCGAGGCGACTGCCTTGGG |  | no binding
phoP -64 (dsDNA) DNA 1: GACTGTTAGCAGACTACTGGCAACGAGCTTTC DNA 2: GAAAGCTCGTTGCCAGTAGTCTGCTAACAGTC |  | no binding
phoP -42 (dsDNA) DNA 1: ACGAGCTTTCAGGAATTACACAATGACTGTG DNA 2: CACAGTCATTGTGTAATTCCTGAAAGCTCGT |  | no binding
ptrBa -244 (dsDNA) DNA 1: ATCTTCACACCGGACTCGTCGCGGTACT DNA 2: AGTACCGCGACGAGTCCGGTGTGAAGAT |  | no binding
PE8 (dsDNA) DNA 1: CAGATCACACCGCCATGTCAGCCGCCAA DNA 2: TTGGCGGCTGACATGGCGGTGTGATCTG |  | no binding
pks3 -653 (dsDNA) DNA 1: GGCGGCCCACTGCGCCTGCACCGCCGTGTTGG DNA 2: CCAACACGGCGGTGCAGGCGCAGTGGGCCGCC |  | no binding
fbpA (dsDNA) DNA 1: ATACTGACAGCAAGATCACAATTGAGCC DNA 2: GGCTCAATTGTGATCTTGCTGTCAGTAT | 56.5 ± 2.6 nM | 

— publication PMC4283936
